According to patent US20180187196, “INHIBITORS OF DEK PROTEIN AND RELATED METHODS” (THE REGENTS OF THE UNIVERSITY OF MICHIGAN, published 2018):

T1: DEK (Homo sapiens, UniProt P35659 P35659:1-375)
T1 sequence: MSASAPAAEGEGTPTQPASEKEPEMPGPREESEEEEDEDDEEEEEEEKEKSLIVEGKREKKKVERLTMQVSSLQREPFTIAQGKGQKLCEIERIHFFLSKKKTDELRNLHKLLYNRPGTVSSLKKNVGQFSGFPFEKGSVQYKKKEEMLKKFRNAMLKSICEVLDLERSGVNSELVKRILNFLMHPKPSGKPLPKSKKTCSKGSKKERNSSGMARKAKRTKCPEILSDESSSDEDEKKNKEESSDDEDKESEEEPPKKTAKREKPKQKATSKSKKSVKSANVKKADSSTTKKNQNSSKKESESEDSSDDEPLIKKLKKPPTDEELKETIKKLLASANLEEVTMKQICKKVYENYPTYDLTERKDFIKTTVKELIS

B1: DEK aptamer 85 (ssDNA)
DNA: ATAGGGAGTCGACCGACCAGAATACCGTGGCATCTGGTTGTAGCATCACGTCTTATGCGGCCGTATGTGCGTCTACATCTAGACT
B2: DEK aptamer 64 (ssDNA)
DNA: ATAGGGAGTCGACCGACCAGAAGGGGTTAAATATTCCCACATTGCCTGCGCCAGTACAAATAGTATGTGCGTCTACATCTAGACT

Biological target: T1, DEK
Assay: Southwestern blot on denatured DEK with salmon sperm DNA competitor; 300 mM NaCl wash; not quantitated; clones preselected by dot blot filter binding
Conditions: tags: His-tag (pBlueBacHis2A baculovirus, HighFive cells, Ni-NTA purified); label: 5'-32P
Description: After determining the sequences of individual aptamer clones, the corresponding DNA oligonucleotides with and without 5′ and 3′ priming sequences were ordered from IDT (Coralville, Iowa), and radiolabeled with ³²P according to the NEB T4 Kinase kit protocol as above. Binding was then tested using a southwestern blot of purified DEK protein. A conventional western blot was performed using PVDF Immobillon P (EMDMillipore, Darmstadt, Germany). After the transfer, the membrane was soaked in PreHyb buffer [(10 mM Hepes (pH 7.9), 100 ug/mL salmon sperm DNA (Sigma-Aldrich, St. Louis, Mo.), 5% bovine serum albumin (Sigma-Aldrich, St. Louis, Mo.)] for 30 min on the shaker at room temperature to block the membrane. The PreHyb buffer was then removed and 5 mL of Hyb Buffer [(10 mM Hepes (pH 7.9), 50 mM NaCl, 1 mM EDTA, 1 mM DTT, 0.25% BSA, 2 ug/ul salmon sperm DNA, 50 million CPM aptamer)] was added and incubated on the shaker at room temperature for one hour. The Hyb Buffer was removed and the membrane was washed 3× on the shaker at room temperature for 20 min with wash buffer [(10 mM Hepes (pH 7.9), 300 mM NaCl, 1 mM EDTA, 1 mM DTT, 0.25% BSA)]. The membranes were dried and exposed on a Typhoon Phosphor imager (GE Healthcare, Pittsburgh, Pa.) cassette overnight to visualize the radiolabeled DNA bound to the bands corresponding to DEK protein. […] No quantitation was determined.

| Binder | binding result |
| --- | --- |
| B1 | binds |
| B2 | binds |
